Literature values as cited in patent US20230313258A1, “CROSS-LINIKING METHODS” (The University of Bath, priority 2020, published 2023).

Target: dimeric AP-1 transcription factor (Homo sapiens, UniProt P05412)
Conditions: previously identified (Mason et al. 2006)

dimeric AP-1 transcription factor, sequence (P05412 whole entry): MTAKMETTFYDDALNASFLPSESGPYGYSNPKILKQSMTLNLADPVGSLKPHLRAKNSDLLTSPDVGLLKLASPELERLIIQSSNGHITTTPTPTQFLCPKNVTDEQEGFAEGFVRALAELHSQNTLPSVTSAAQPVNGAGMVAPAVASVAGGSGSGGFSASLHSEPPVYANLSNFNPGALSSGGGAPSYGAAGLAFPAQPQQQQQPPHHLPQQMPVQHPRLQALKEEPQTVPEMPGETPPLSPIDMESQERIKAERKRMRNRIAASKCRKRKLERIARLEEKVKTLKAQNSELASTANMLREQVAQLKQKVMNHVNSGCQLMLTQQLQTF

FosW: parent peptide, SEQ ID NO: 1, ASLDELQAEIEQLEERNYALRKEIEDLQKQLEKLGAP; previously identified inhibitor of AP-1
ability to dissociate AP-1 from its DNA binding site: able to dissociate the dimeric AP-1 transcription factor from its DNA binding site
